Results published in patent US20180094250A1, “Methods And Compositions For PCR” (Life Technologies Coroporation, priority 2007, published 2018).

How the values were obtained:
Assay type in all cases: biochemical
[1] = polymerase activity at room temperature relative to peak activity
Description: Pol B DNA polymerases enzymes have relative low polymerase activity at room temperature, while Taq DNA polymerase still retains >5% of its peak activity (FIG. 4).

[2] = test system: cDNA (human); experiment: PCR Residual Activity Assay with three primer sets, agarose gel; details: preincubation 25° C. for 60 min, 40 cycles
Experimental: Under these conditions, if hot-start techniques were not employed, primer dimers tend to form in the PCR reaction mix.
This example includes reactions which is referred to as PCR Residual Activity Assay that involved three set of primers respectively. The primer sets are commercially available from Applied Biosystems, Foster City, Calif. Specifically, Set 1 is Hs00378363_g1; Set 2, Hs00399572_m1 and Set 3, Hs00372859_m1.
The components are listed below:
50 Unit/ml DNA polymerase
and 0.8 ng/μl cDNA (human)
Due to the needs of the individual polymerases, 1× buffer and 1×MgCl2 are different as stated below:
The cycling conditions for ECA001 are listed below:
The cycling conditions for ECA001-Gold:
The cycling conditions for AmpliTaq:
The cycling conditions for AmpliTaq Gold:
Each reaction was run in duplication.

[3] = exonuclease to polymerase activity ratio after modification and re-activation; details: 5′-3′ exonuclease activity
Description: (See details in Example 5)
It is true that lysine is a common amino acid that can be found in many enzymes.

Substance	polymerase activity retained, of its peak activity [1] [%]	non-specific/primer-dimer products versus specific products [2]	exonuclease to polymerase activity ratio [3]
Taq DNA polymerase: Thermus aquaticus Pol I (Taq DNA polymerase)	> 5	–	–
AmpliTaq Gold: commercial hot-start modified Taq polymerase used as comparator	–	mostly the specific products	–
AmpliTaq: AmpliTaq DNA polymerase	–	mostly non-specific/primer-dimer products	has been changed
